From the supplement of paper PMC9170038 come the findings set out here.

The subject of this data set is MS2 coat protein. As to the kind of experiment: apparent KD of MS2 coat protein; designed switch direction (-1 OFF switch, 1 ON switch): -1; higher = weaker reporter binding. An outline of the steps: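 RNA switches sharing common flanks were transcribed by stalled E. coli RNA polymerase on Illumina chips. A doubling series of SNAP-549-labelled MS2 coat protein, from 0.7 or 1.5 nM to 3 µM, was applied in Tris-HCl pH 7.5 buffer with KCl, MgCl2, BSA, DTT, tRNA and Tween-20. Each step lasted 0.8–1.5 h at the bottom of the series and 10–20 min at the top. Normalised cluster fluorescence was curve-fitted, giving apparent KD as the per-design median over clusters.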

[1] abbreviates: Eterna round: R95, input ligand: FMN 200 uM.
The mark [2] stands for this setting: Eterna round: R95, input ligand: microRNA oligo, concentration not stated.
[3] abbreviates: Eterna round: R95, input ligand: none.
[4] abbreviates: input ligand: microRNA oligo, concentration not stated.

“GAAGAUCGAGUUAGGAUAUGAUUACUAUCCGAAAAUCAGAAGGAACUUGAGGAUCACCCAAGUUUAGAAGAAAU [JR_BMEx4_Sub052] (Eterna round: R97, puzzle: Brourd's mod of Exclusion 4)”: the “apparent KD of MS2 coat protein” value by setting is: (input ligand: FMN 200 uM) 0.0182 µM; (input ligand: none) 0.0147 µM.
With “AGAUGGCGAGGAUAUACAUGAGGAUCACCCAUGUGAAGAUAAUAAGUGAGGAAGAAAAGUAGAAGGCGCUGUCA [Mat - Exclusion 3 - Mod of Salish D26] (puzzle: Exclusion 3)”, the “apparent KD of MS2 coat protein” value came to 0.398 µM under setting [1], 0.0726 µM under setting [2] and 0.0704 µM under setting [3].
In the case of “ACGCAUUGCCUUUGGUAGUGCGUAACAUGAGGAUCACCCAUGUAGGAUAUGGUAGGCUUUGCUUACCAGAAGGACAUUAUAAAG [Mat - Exclusion NG 3 - Mod of JL - D10] (Eterna round: R96, puzzle: Exclusion NG 3)”, the “apparent KD of MS2 coat protein” value runs as follows: (input ligand: FMN 200 uM) 0.0516 µM; under setting [4], 0.0284 µM; (input ligand: none) 0.0341 µM.
Regarding “GUAGAGUAAGGAUAUACUGAAUAGGAUAGAAUGGUUAGAAAGUAGAAGGUACAUGAGGAUCACCCAUGUAAUGU [Excluse me!!!! 19 - Jieux - Exclusion 4] (Eterna round: R96, puzzle: Exclusion 4)”, the “apparent KD of MS2 coat protein” value was found to be 0.0209 µM (input ligand: FMN 200 uM), 0.0186 µM under setting [4] and 0.024 µM (input ligand: none).
Take “ACAUGACUGCUAGGAUAUAGAUGACAUGAGGAUCACCCAUGUUAUCCCAUGUUGACGGAAACCGACUAGAAGGAGCAACAUAUG [Ex NG2 #8] (Eterna round: R96, puzzle: Exclusion NG 2)”: the “apparent KD of MS2 coat protein” value was 0.0647 µM (input ligand: FMN 200 uM), 0.0306 µM under setting [4] and 0.0465 µM (input ligand: none).
Take “AGAUGGCGAGGAUAUACAUGAGGAUCACCCAUGUGAAGAAGAAGAGUGAGGAAGAAAAGUAGAAGGCGCUGUCA [Mat - Exclusion 3 - Mod of Salish D30] (puzzle: Exclusion 3)”: the “apparent KD of MS2 coat protein” value is, setting by setting: under setting [1], 0.137 µM; under setting [2], 0.0458 µM; under setting [3], 0.0647 µM.
For the sequence “GUGGUUUGUGUAGGAUAUUCGUUUGUGCGGUGCGGAGAAGGACAUGAGGAUCACCCAUGUGUGCGAGGAUCACCCGUGUGUUGU [double 2 (less A)] (Eterna round: R96, puzzle: Exclusion NG 1)”, the “apparent KD of MS2 coat protein” value is, setting by setting: (input ligand: FMN 200 uM) 0.0556 µM; under setting [4], 0.0403 µM; (input ligand: none) 0.0505 µM.
Take “CGAUGCUCGAGUCGACAUGAGGAUCACCCAUGUAGAGUUAGCGAGGAUAUCGGAGACACAUAGUAUGAGAAGGCGCGAACCUGA [Ex NG3 #19] (Eterna round: R96, puzzle: Exclusion NG 3)”: the “apparent KD of MS2 coat protein” value (input ligand: FMN 200 uM) was 0.0362 µM, the “apparent KD of MS2 coat protein” value under setting [4] came out at 0.0123 µM and the “apparent KD of MS2 coat protein” value (input ligand: none) worked out at 0.0167 µM.
“UGCUACGGAGGAUAUACAUGAGGAUCACCCAUGUGAUAGAUUAUGCCGAGAGGCUAGUGUAGAAGGCCGUAGCU [jl-ex3-4.14 jl mod] (Eterna round: R97, puzzle: Exclusion 3)”: the “apparent KD of MS2 coat protein” value (input ligand: FMN 200 uM) was 0.683 µM and the “apparent KD of MS2 coat protein” value (input ligand: none) is 0.189 µM.
Taken in the same sequence, the figures for “CUAAUACAUGUGAGGAUAUACGACUUGGAGACGGCGUAGAAGGUACAUGAGGAUCACCCAUGUGCGGGCUCCUU [Eternabot (L1) Solution 49] (Eterna round: R97, puzzle: Brourd's mod of Exclusion 4)” were 0.0559 µM and 0.0275 µM.
Take “GUUAAGUGAGGAUAUGGUAAAUUAAUUAUUAAUUAAUUAAUCCAGAAGGCACAUGAGGAUCACCCAUGUAAAUG [Mat - Exclusion 4 - D87] (puzzle: Exclusion 4)”: the “apparent KD of MS2 coat protein” value is 0.0546 µM under setting [1], 0.0305 µM under setting [2] and 0.0315 µM under setting [3].
For “UUCCUGUCAGGAUAUGACUAGAUGCACGUUAGUGUGUUUACUUAGAAGGGACAUGAGGAUCACCCAUGUAUUCC [Bring Us a Shrubbery-15] (puzzle: Exclusion 4)”, under setting [2], the “apparent KD of MS2 coat protein” value is 0.0251 µM.
With “CACCCACAUGAGGAUCACCCAUGUGAGGAUAUGAUACUAUGUACUUCGGUACAUAGUAUCAGAAGGCACAGGUG [Ex1-3: 61] (puzzle: Exclusion 1)”, the “apparent KD of MS2 coat protein” value under setting [2] came out at 0.0303 µM.
As to “AUCCUCACUUUUUAAGCGAACAUGAGGAUCACCCAUGUACAAGCUUUUUGCUCGGCUUAUAAAGGGUUGGAAACAAC [Alacar Attempt 3] (Eterna round: R97, puzzle: Sensor, turn-off variant 1)”, the “apparent KD of MS2 coat protein” value stood at 0.0168 µM (input ligand: FMN 200 uM) and 0.016 µM (input ligand: none).
For “AUGUAGGAAGGAUAUGCGUCGGCAUGAAAUCCUUGUUGGCCACAUGAGGAUCACCCAUGUAGAAGGUUCACGUA [Eternabot (L2) Solution 10] (Eterna round: R97, puzzle: Exclusion 2)”, the “apparent KD of MS2 coat protein” value (input ligand: FMN 200 uM) stood at 0.0488 µM and the “apparent KD of MS2 coat protein” value (input ligand: none) was found to be 0.0527 µM.
Turning to “CCCAGGGCAGGAUAUAGAGGGCUAAACAUGAGGAUCACCCAUGUGACCUCGGAACAGUUGCUAGAAGGGCCAGAUU [Maedonxe] (puzzle: Exclusion 5)”, the “apparent KD of MS2 coat protein” value under setting [1] amounted to 0.0298 µM, the “apparent KD of MS2 coat protein” value under setting [2] amounted to 0.0177 µM and the “apparent KD of MS2 coat protein” value under setting [3] was determined as 0.022 µM.
Turning to “UGAGGACAUGAGGAUCACCCAUGUAAGGAUAUGCGGAGAGUUUGGAGAGGUUGAGGAGGCAGAAGGUACGGGAU [JR_Exclu1_Sub046] (puzzle: Exclusion 1)”, under setting [2], the “apparent KD of MS2 coat protein” value was 0.102 µM.
The same measure, in the same setting: for “UUUUAACAUGAGGAUCACCCAUGUGAGGAUAUCGAAAUUUAUAUUAAUAUUAAUAUAACGAGAAGGCACAUUUU [JMF 23] (puzzle: Exclusion 1)” the value was 0.0472 µM; for “GGUAGAGAGCAGGAUAUCUUGGGUAAGUAUCGUAGAGAAGGGCUCACAUGAGGAUCACCCAUGUGGUCCUAGAU [JL Dibiri mod 04] (puzzle: Exclusion 6)”, 0.0118 µM.
On to “UAUUAGCAAGCAAAUGGGUACAUGAGGAUCACCCAUGUGCUCGUCUUAUAAGGUACUGUGACGAAAGUCACGGUCCC [mod--Eli7] (Eterna round: R97, puzzle: Sensor, turn-off variant 1)”, for which the “apparent KD of MS2 coat protein” value reads like this: (input ligand: FMN 200 uM) 0.023 µM; (input ligand: none) 0.024 µM.
“GAGCCAUCGUGAGAUGGCUAAUUUACAUGAGGAUCACCCAUGUAGGAUAUCGAUUGCUUUGCAGUCGAGAAGGACAUGUUUAAU [JL ENG3 3.98] (Eterna round: R96, puzzle: Exclusion NG 3)”: the “apparent KD of MS2 coat protein” value came to 0.0716 µM (input ligand: FMN 200 uM), 0.0283 µM under setting [4] and 0.0362 µM (input ligand: none).
On to “GUCAGCUCGUGAGGAUAUACAUGAUAGAUCGAUUAAUUAAUUAAUUUAACAUGAGGAUCACCCAUGUAGAAGGUACGAGCUGAC [ENG2/1-C1] (Eterna round: R96, puzzle: Exclusion NG 2)”, for which the “apparent KD of MS2 coat protein” value under setting [4] was 0.0433 µM.
On to “CGGUGACAUGAGGAUCACCCAUGUUAGGAUAUGACUUCGUACGCGAACAGGUAUGGAGUCAGAAGGAGCAUCCA [Eternabot (Original) Solution 45] (Eterna round: R97, puzzle: Exclusion 1)”, for which the “apparent KD of MS2 coat protein” value was 0.0806 µM (input ligand: FMN 200 uM) and 0.0384 µM (input ligand: none).
The corresponding values for “GGAGGAGAGGUUAGGAUAUCCUCCUCGAAAGAGGAGGAGAAGGAACAUGAGGAUCACCCAUGUAAGGAAGGAGG [AK-MS2ROC-r4-Bmoexclusion4-10] (Eterna round: R97, puzzle: Brourd's mod of Exclusion 4)” are 0.0271 µM and 0.037 µM.
Consider “AUAAGCUUUGAGAUCCUUAACAUGAGGAUCACCCAUGUUCGUCUUAUGAUGGUCUGAUCCCUGAGGAUCGGACCGUC [JL-sv1-2.01 Brourd Mod] (puzzle: Sensor v3, turn-off variant 1)”, for which the “apparent KD of MS2 coat protein” value was determined as 0.456 µM under setting [1], 0.0135 µM under setting [2] and 0.416 µM under setting [3].
As to “GUAGAGUGAGGAUAUACAAGAUCGAAAGAUCGGCGAUCCAUACAUGAGGAUCACCCAUGUAGAAGGCACUCUAC [Eli x2 4.007] (Eterna round: R97, puzzle: Exclusion 2)”, the “apparent KD of MS2 coat protein” value was 0.678 µM (input ligand: FMN 200 uM) and 0.102 µM (input ligand: none).
Take “ACCUCUUGAGGAUAUACAUGAGGAUCACCCAUGUUCCUUAAUAAAAUAGUUAUAUCGUGUAGAAGGUGGGAGGC [Eternabot (L2) Solution 42] (Eterna round: R97, puzzle: Exclusion 3)”: the “apparent KD of MS2 coat protein” value (input ligand: FMN 200 uM) turned out to be 0.0114 µM and the “apparent KD of MS2 coat protein” value (input ligand: none) stood at 0.069 µM.
In the case of “GUGGUCCGAGGAUAUAUUAUGUGAUACAUGAGGAUCACCCAUGUUAUAUGAUGGAUGUUAGUAGAAGGCGGACUAC [Mat - Exclusion 5 - JL mod - D82] (puzzle: Exclusion 5)”, the “apparent KD of MS2 coat protein” value under setting [1] came out at 0.0952 µM, the “apparent KD of MS2 coat protein” value under setting [2] was 0.0862 µM and the “apparent KD of MS2 coat protein” value under setting [3] amounted to 0.0964 µM.
As to “AACCGUCGUCAGGAUAUUUGCCAGGAUUCUAGCGAAGAAGGGACGACAUGAGGAUCACCCAUGUUGGCCACUCG [EX6 B.26] (Eterna round: R97, puzzle: Exclusion 6)”, the “apparent KD of MS2 coat protein” value runs as follows: (input ligand: FMN 200 uM) 0.188 µM; (input ligand: none) 0.0369 µM.
As for “UGAGGACAUGAGGAUCACCCAUGUAAGGAUAUGCGGAGAGUUUGGAGAGGUUGAGGAGGCAGAAGGUACGGGAU [JR_Exclu1_Sub046] (Eterna round: R96, puzzle: Exclusion 1)”, the “apparent KD of MS2 coat protein” value is, setting by setting: (input ligand: FMN 200 uM) 0.144 µM; under setting [4], 0.0474 µM; (input ligand: none) 0.103 µM.
With “ACUUACUGAGGAUAUACAUAGAUUUACAUGAGGAUCACCCAUGUUCCUCUAUGUAUAUAUGUAGAAGGCAGAAGAG [Mat - Exclusion 5 - JL Mod - D35] (Eterna round: R97, puzzle: Exclusion 5)”, the “apparent KD of MS2 coat protein” value reads like this: (input ligand: FMN 200 uM) 0.0563 µM; (input ligand: none) 0.0216 µM.
